T1: DNA ligase IIIα (LIGIIIα) (UniProt P49916-3 1-922)
T1 sequence: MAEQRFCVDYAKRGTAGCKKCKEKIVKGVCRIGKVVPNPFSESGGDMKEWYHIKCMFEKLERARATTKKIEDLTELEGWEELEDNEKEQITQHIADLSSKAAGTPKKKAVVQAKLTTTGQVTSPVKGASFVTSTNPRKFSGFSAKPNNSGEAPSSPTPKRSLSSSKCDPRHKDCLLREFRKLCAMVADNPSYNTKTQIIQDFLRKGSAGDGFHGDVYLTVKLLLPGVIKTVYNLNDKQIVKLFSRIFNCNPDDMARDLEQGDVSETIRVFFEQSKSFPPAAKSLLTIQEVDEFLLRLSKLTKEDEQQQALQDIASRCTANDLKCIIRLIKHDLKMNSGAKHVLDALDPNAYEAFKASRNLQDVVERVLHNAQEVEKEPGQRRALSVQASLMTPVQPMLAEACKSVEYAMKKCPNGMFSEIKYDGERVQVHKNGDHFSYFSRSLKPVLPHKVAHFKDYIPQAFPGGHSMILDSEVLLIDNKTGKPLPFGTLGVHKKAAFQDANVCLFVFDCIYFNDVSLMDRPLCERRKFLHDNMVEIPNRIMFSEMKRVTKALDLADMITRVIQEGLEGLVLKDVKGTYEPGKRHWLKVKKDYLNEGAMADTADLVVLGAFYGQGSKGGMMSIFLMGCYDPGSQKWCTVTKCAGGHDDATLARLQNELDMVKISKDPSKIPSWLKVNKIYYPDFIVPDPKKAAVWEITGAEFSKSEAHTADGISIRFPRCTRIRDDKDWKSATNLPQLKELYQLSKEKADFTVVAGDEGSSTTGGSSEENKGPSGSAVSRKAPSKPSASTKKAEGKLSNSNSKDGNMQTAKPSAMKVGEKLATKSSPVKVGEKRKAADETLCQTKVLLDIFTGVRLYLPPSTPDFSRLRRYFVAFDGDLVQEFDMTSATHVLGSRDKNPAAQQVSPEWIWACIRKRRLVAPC

B1: one-nucleotide gap DNA (template C) (dsDNA)
DNA 1: CATGGGCGGCATGAACC
DNA 2: GAGGCCCATCCTCACC
DNA 3: GGTGAGGATGGGCCTCCGGTTCATGCCGCCCATG
modifications: 5'-phosphate on S2 at the gap; 3'-OH on S1
B2: nick DNA (3'-dG:C) (dsDNA)
DNA 1: CATGGGCGGCATGAACCG
DNA 2: GAGGCCCATCCTCACC
DNA 3: GGTGAGGATGGGCCTCCGGTTCATGCCGCCCATG
modifications: 5'-phosphate on strand 2 at the nick; 3'-OH on strand 1

Columns and labels:
[1] = target: apurinic/apyrimidinic endonuclease 1 (APE1) (UniProt P27695 1-318); assay: BLI; BLI (Octet QKe), 20 °C: polβ, APE1, LIGIIIα in 20 mM Hepes pH 7.4, 200 mM NaCl, 0.5% BSA, 0.05% Tween 20; LIG1 in 50 mM Tris-HCl pH 7.5, 100 mM KCl, 1 mM DTT; no Mg2+ listed; settings: protein: recombinant, tags: His, strands 1 and 2 pair with strand 3, blunt outer ends
DNA ligase 1 (LIG1) [2] = target: T2, DNA ligase 1 (LIG1) (UniProt P18858 1-919); assay: BLI; range given jointly for polβ, LIG1 and LIGIIIα; LIG1 buffer; BLI (Octet QKe), 20 °C: polβ, APE1, LIGIIIα in 20 mM Hepes pH 7.4, 200 mM NaCl, 0.5% BSA, 0.05% Tween 20; LIG1 in 50 mM Tris-HCl pH 7.5, 100 mM KCl, 1 mM DTT; no Mg2+ listed; settings: protein: recombinant; tags: His; label: 3'-biotin on S2; 1-nt gap opposite template C; strands 1 and 2 pair with strand 3; blunt outer ends
[3] = target: T3, DNA polymerase beta (polβ) (UniProt P06746 1-335); assay: BLI; range given jointly for polβ, LIG1 and LIGIIIα; individual value only in figure; BLI (Octet QKe), 20 °C: polβ, APE1, LIGIIIα in 20 mM Hepes pH 7.4, 200 mM NaCl, 0.5% BSA, 0.05% Tween 20; LIG1 in 50 mM Tris-HCl pH 7.5, 100 mM KCl, 1 mM DTT; n
[4] = target: T1, DNA ligase IIIα (LIGIIIα); assay: BLI; range given jointly for polβ, LIG1 and LIGIIIα; individual value only in figure; BLI (Octet QKe), 20 °C: polβ, APE1, LIGIIIα in 20 mM Hepes pH 7.4, 200 mM NaCl, 0.5% BSA, 0.05% Tween 20; LIG1 in 50 mM Tris-HCl pH 7.5, 100 mM KCl, 1 mM DTT; no Mg2+ listed; settings: protein: recombinant; tags: His; label: 3'-biotin on S2; 1-nt gap opposite template C; strands 1 and 2 pair with strand 3; blunt outer ends
[5] = target: T3, DNA polymerase beta (polβ); assay: BLI; BLI (Octet QKe), 20 °C: polβ, APE1, LIGIIIα in 20 mM Hepes pH 7.4, 200 mM NaCl, 0.5% BSA, 0.05% Tween 20; LIG1 in 50 mM Tris-HCl pH 7.5, 100 mM KCl, 1 mM DTT; n
[6] = target: T1, DNA ligase IIIα (LIGIIIα); assay: BLI; BLI (Octet QKe), 20 °C: polβ, APE1, LIGIIIα in 20 mM Hepes pH 7.4, 200 mM NaCl, 0.5% BSA, 0.05% Tween 20; LIG1 in 50 mM Tris-HCl pH 7.5, 100 mM KCl, 1 mM DTT; no Mg2+ listed; settings: protein: recombinant; tags: His; label: 3'-biotin on strand 2; nicked duplex; strands 1 and 2 pair with strand 3; blunt outer ends
DNA ligase 1 (LIG1) [7] = target: T2, DNA ligase 1 (LIG1); assay: BLI; LIG1 buffer; BLI (Octet QKe), 20 °C: polβ, APE1, LIGIIIα in 20 mM Hepes pH 7.4, 200 mM NaCl, 0.5% BSA, 0.05% Tween 20; LIG1 in 50 mM Tris-HCl pH 7.5, 100 mM KCl, 1 mM DTT; no Mg2+ listed; settings: protein: recombinant; tags: His; label: 3'-biotin on strand 2; nicked duplex; strands 1 and 2 pair with strand 3; blunt outer ends

Row | Binder | Kd ([1]; label: 3'-biotin on S2, 1-nt gap opposite template C) [nM] | Kd (DNA ligase 1 (LIG1) [2]) [nM] | Kd [3] [nM] | Kd [4] [nM] | Kd [5] [nM] | Kd ([1]; label: 3'-biotin on strand 2, nicked duplex) [nM] | Kd [6] [nM] | Kd (DNA ligase 1 (LIG1) [7]) [nM]
1 | B1 | 70 | ~4.9 | ~4.9 | ~4.9 | – | – | – | –
2 | B2 | – | – | – | – | ~20 | 200 | ~7 | 3
